For experiment [1] the following is noted: from literature; cited from earlier work.
Experiment [2] relates to white flowered Petunia mutant (W80). The experiment is described as follows: TLC analysis of anthocyanidins produced in transgenic W80 Petunia flowers. Type of experiment: in vivo. As to conditions: W80 line, anthocyanidins on cellulose TLC against pelargonidin, cyanidin, delphinidin standards. The source says: In accordance with the present invention, the substrate specificity determining region was identified by determining the abilities of three chimeric DFRs to catalyze the reduction of DHK in the transgenic Petunia lines. In order to identify the region of DFR that determines its substrate specificity, we constructed chimeric DFR genes using cDNA sequences of Petunia (SEQ ID NO: 35) and Gerbera (SEQ ID NO; 1). […] We built three different chimeric genes using regions of high homology as common PCR primer sites (FIG. 1A). The chimeric genes were transformed into a white flowered Petunia mutant (W80) that lacks DFR activity and accumulates primarily DHK but with appreciable amounts of dihydroquercetin (DHQ) and dihydromyricetin (DHM) (Huits et at, 1994). […] The hue of Chimera 1 flowers is very similar to the inbred Petunia mutant RLO1, which has functional DFR activity and accumulates DHK. […] The identified region (approx. 40 amino acids) is highly variable in DFRs from different plant species. By excluding the completely conserved amino acid sequences at the borders, the identified region is narrowed down to 26 amino acids. Hereinafter, this region is referred as substrate specificity determining region.
Anthocyanidins were separated on cellulose TLC plates as described (Johnson, et al. Plant J. 19:81-85 (1999)). Corollas were sometimes stored at 4° C. for extended periods of time in methanol-0.5% HCl solution. Before adding iso-amylalcohol, the flower extracts were quantified at 530 nm to ensure uniform loading on the TLC plate. Anthocyanin standards were purchased from Apin Chemicals Ltd. (Oxfordshire, England).

For experiment [3], the system named is WV Petunia line (dfr^−/−, F3′5′H^+/+). The experiment in a line: Flower colour of WV Petunia line crossed with DFR transformants. Type of experiment: in vivo. The source says: (§1) In accordance with the present invention, a DHK-specific DFR was developed by replacing asparagine at 134th amino acid residue of Gerbera DFR to leucine. […] Since the W80 Petunia line we transformed accumulates mainly DHK with small amount of DHQ and DHM, it was not clear if the N134L mutant DFR completely lost the capability of reducing DHQ and DHM. To investigate if the N134L mutant DFR produces only pelargonidin in the presence of fully active flavonoid-3′-hydroxylase (F3′H) or flavonoid-3′,5′-hydroxylase (F3′5′H), we crossed our N134L transformant with Petunia lines that are either dfr^−/−/F3′H^+/+ (WR line) or dfr^−/−/F3′5′H^+/+ (WV line). […] To determine the pigments produced in these crossed lines, we performed TLC analysis.
(§2) Gerbera DFR genes containing one amino acid point mutation were made in a similar manner as the chimeric genes. The 5′ region was synthesized using a primer having the Gerbera DFR starting methionine and a primer containing a single codon change. The 3′ region was made with a complementary primer with the single codon change and a primer having the stop codon of Gerbera DFR. The full length mutant sequence was assembled like the chimeric genes above. Each point mutant was cloned into a vector having the 35S CaMV promoter and NOS terminator. […] Mutations in other loci were not determined in these two Petunia lines.

Experiment [4] has as its system white flowered Petunia mutant (W80). Type of experiment: in vivo. As to conditions: W80 line (lacks DFR activity, accumulates primarily DHK); DFR gene under 35S CaMV promoter.
Experiment [5] has as its system WR Petunia line (dfr^−/−, F3′H^+/+). The experiment is described as follows: Flower colour of WR Petunia line crossed with DFR transformants. Type of experiment: in vivo.
Source text: as §1, §2

The test system is the same in experiment [6]. The experiment is described as follows: TLC analysis of pigments in WR crossed lines. The class given is in vivo.
Source text: as §1
(§3) Gerbera DFR genes containing one amino acid point mutation were made in a similar manner as the chimeric genes. The 5′ region was synthesized using a primer having the Gerbera DFR starting methionine and a primer containing a single codon change. The 3′ region was made with a complementary primer with the single codon change and a primer having the stop codon of Gerbera DFR. The full length mutant sequence was assembled like the chimeric genes above. Each point mutant was cloned into a vector having the 35S CaMV promoter and NOS terminator. The mutagenized region of each mutant DFR was sequenced to ensure the correct residue was changed. Point mutants were then transformed into the W80 Petunia line. The transformants expressing the DFR genes were crossed with WR Petunia line (dfr^−/−, F3′H^+/+) and WV Petunia line (dfr^−/−, F3′5′H^+/+) to determine the substrate specificity of the mutated DFR. Mutations in other loci were not determined in these two Petunia lines.
(§4) Anthocyanidins were separated on cellulose TLC plates as described (Johnson, et al. Plant J. 19:81-85 (1999)). Corollas were sometimes stored at 4° C. for extended periods of time in methanol-0.5% HCl solution. Before adding iso-amylalcohol, the flower extracts were quantified at 530 nm to ensure uniform loading on the TLC plate. […]

Experiment [7] concerns WV Petunia line (dfr^−/−, F3′5′H^+/+). The experiment is described as follows: TLC analysis of pigments in WV crossed lines. Type of experiment: in vivo.
Source text: as §1, §3, §4

Experiment [8] in a line: Substrate specificity of DFR (reduction of dihydroflavonols). The following applies: concluded from flower colour and TLC data of WR and WV crosses.
Source text: as §1, §2

Residue numbers refer to the chain shown, from its start. Names may count otherwise. “Also recorded” adds a separate entry of the source.

B1: maize DFR: maize DFR introduced into a Petunia mutant line (Meyer et al.) (protein, UniProt P51108 1-357, looked up)
Dihydroflavonol 4-reductase: MERGAGASEKGTVLVTGASGFVGSWLVMKLLQAGYTVRATVRDPANVGKTKPLMDLPGATERLSIWKADLAEEGSFHDAIRGCTGVFHVATPMDFLSKDPENEVIKPTVEGMISIMRACKEAGTVRRIVFTSSAGTVNLEERQRPVYDEESWTDVDFCRRVKMTGWMYFVSKTLAEKAALAYAAEHGLDLVTIIPTLVVGPFISASMPPSLITALALITGNAPHYSILKQVQLIHLDDLCDAEIFLFENPAAAGRYVCSSHDVTIHGLAAMLRDRYPEYDVPQRFPGIQDDLQPVRFSSKKLQDLGFTFRYKTLEDMFDAAIRTCQEKGLIPLATAAGGDGFASVRAPGETEATIGA
Turning to B1, in experiment [1], the “substrate use among DHK, DHQ and DHM” value is listed as “can convert all three dihydroflavonols to their leucocyanidins”.

B2: Gerbera DFR: wild type Gerbera dihydroflavonol 4-reductase (SEQ ID NO: 2) (protein)
chain: MEEDSPATVCVTGAAGFIGSWLVMRLLERGYVVHATVRDPGDLKKVKHLLELPKAQTNLKLWKADLTQEGSFDEAIQGCHGVFHLATPMDFESKDPENEIIKPTIEGVLSIIRSCVKAKTVKKLVFTSSAGTVNGQEKQLHVYDESHWSDLDFIYSKKMTAWMYFVSKTLAEKAAWDATKGNNISFISIIPTLVVGPFITSTFPPSLVTALSLITGNEAHYSIIKQGQYVHLDDLCECHIYLYENPKAKGRYICSSHDATIHQLAKIIKDKWPEYYIPTKFPGIDEELPIVSFSSKKLIDTGFEFKYNLEDMFKGAIDTCREKGLLPYSTIKNHINGNHVNGVHHYIKNNDDDHEKGLLCCSKEGQ
For B2, the “pigments produced in transgenic Petunia flowers (TLC)” value is “production of appreciable amounts of cyanidin and delphinidin in addition to pelargonidin” in experiment [2] (listed as native Gerbera DFR); “accumulated significant amount of cyanidin and delphinidin in addition to perlargonidin” in experiment [2] (listed as wild type Gebera DFR). In addition, the “substrate use among DHK, DHQ and DHM” value in experiment [1] is reported as “able to catalyze dihydrokaempferol (DHK)”. The results for the “flower color of crossed line” value in experiment [3] and in experiment [5] were “violet colored flowers” and “red colored flowers”, respectively. The “flower color of transgenic Petunia” value in experiment [4] is given as “orange/bric-red color”. For the same molecule, the “pigments accumulated in crossed line (TLC)” value in experiment [6] (listed as DFR^WT) is on record as “mainly accumulated cyanidin”; in experiment [6] (listed as wild type DFR), “cyanidin”; in experiment [7] (listed as DFR^WT) it was “accumulated mainly delphinidin”; in experiment [7] (listed as wild type DFR) it was “delphinidin”.

B3: N134L: DFR that has leucine instead of aspargine at the 134th position of Gerbera DFR (SEQ ID NO 4) (protein)
chain: B2 chain with N134L
In the case of B3, the “pigments produced in transgenic Petunia flowers (TLC)” value in experiment [2] is recorded as “accumulated mostly pelargonidin”; in experiment [2] (listed as DHK-specific DFR), “production of only pelargonidin”. Moreover, the “flower color of crossed line” value in experiment [3] is recorded as “white flowers”; in experiment [5], “orange colored flowers”. Besides, in experiment [4], the “flower color of transgenic Petunia” value is “slightly different colored flowers”. The “substrate preference among DHK, DHQ and DHM” value in experiment [8] was “preferentially utilizes DHK as a substrate over DHQ and cannot reduce DHM”. Besides, the “pigments accumulated in crossed line (TLC)” value in experiment [6] (listed as DFR^N134L) is “accumulated pelargonidin and cyanidin; also recorded: accumulated a large amount of pelargonidin”; in experiment [7] (listed as DFR^N134L) it was “did not accumulated any pigment other than background level of delphinidin; also recorded: no appreciable amounts of anthocyanidins accumulated other than a background level of delphinidin”.

These data come from US6555734B2, “Genetic sequences encoding substrate-specific dihydroflavonol 4-reductase and uses therefor” (Korea Kumho Petrochemical Co., Ltd., priority 2000, dated 2003).
